Test results: the supplement of paper PMC9732359
± gives the uncertainty stated by the source.

Test: protein stability index of a GFP-peptide fusion (yeast GPS) (PSI 1-4); higher = more stable; sorted into four equal gates, so the index is relative within each strain
How it was run: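 Each library plasmid carries Cherry plus GFP with a tiled 17-residue yeast protein peptide fused downstream, and the pooled library was carried in yeast. Mid-log cultures in leucine-free medium were sorted into four equal gates by GFP/Cherry ratio. Reads from Illumina sequencing of PCR-amplified plasmids from each gate were assigned to strains by barcodes. Per peptide, the protein stability index was computed as the summed products of gate read frequency and gate number.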

Sequence | protein stability index (doa10∆) | protein stability index (pdr5∆) | protein stability index (ubr1∆) | protein stability index (san1∆)
EVYEALKEVLYNDSATS [RPN2] | 3.34 ± 0.18 | 3.45 ± 0.15 | 3.46 ± 0.08 | –
QRIAKNDPEYMDTSDDA [DLS1] | 3.01 ± 0.16 | 3.15 ± 0.12 | 3.01 ± 0.079 | 2.82 ± 0.15
SKRRITEELSITGEKLD [SMC1] | 2.17 ± 0.08 | 2.22 ± 0.072 | 2.01 ± 0.078 | 2.18 ± 0.1
MQFAKSKTVKVLKTLIE [RPN6] | 1.24 ± 0.071 | 1.43 ± 0.077 | 2.26 ± 0.093 | 2.51 ± 0.11
LKFAVQVDKVTKEKVNG [RPL26A] | 3.23 ± 0.21 | 3.4 ± 0.16 | 3.01 ± 0.069 | 2.71 ± 0.11
IMNVLSEGFEPTFSTHA [PRP8] | 2.86 ± 0.096 | 2.94 ± 0.075 | 2.67 ± 0.069 | 2.57 ± 0.07
RNVTKGDIVRMLETAGF [SMC3] | 2.81 ± 0.099 | 3.07 ± 0.12 | 3.19 ± 0.07 | 2.76 ± 0.1
EGPKKCIQVNCLNCEKS [SNM1] | 2.62 ± 0.079 | 2.04 ± 0.058 | 2.22 ± 0.049 | 2.8 ± 0.073
HPFGHALVAGIERYPSK [RPL27B] | 2.43 ± 0.14 | 2.67 ± 0.1 | 2.46 ± 0.17 | 2.24 ± 0.16
WTMAFRTMDDIKDSVRE [ECM29] | – | 2.5 ± 0.16 | 2.66 ± 0.12 | 2.67 ± 0.11
YKFLDQNSDASTLEPTL [YIL149C/MLP2] | 2.24 ± 0.11 | 1.65 ± 0.092 | 2.67 ± 0.18 | 2.27 ± 0.09
IFIATQLEKKIRFVCLS [BRR2] | 2.17 ± 0.2 | 1.86 ± 0.11 | 1.49 ± 0.074 | –
KLMDEDSVATVIEVIET [YJR042W/NUP85] | 2.85 ± 0.13 | 3.02 ± 0.16 | 2.98 ± 0.15 | 2.51 ± 0.11
PPETKLPYPTYWSDKKA [SNF5] | 2.91 ± 0.085 | 2.82 ± 0.062 | 2.86 ± 0.053 | 3.15 ± 0.056
NLSLYEATAASHERFFL [CSN12] | 2.35 ± 0.065 | 2.73 ± 0.072 | 2.62 ± 0.065 | 2.08 ± 0.12
LGKFKNIIASPLSAGFN [SIN4] | 1.88 ± 0.06 | 1.94 ± 0.05 | 2.04 ± 0.056 | 1.95 ± 0.09
GVDPTGSHLFSIHAHGS [PUP1] | 2.31 ± 0.1 | 2.52 ± 0.15 | 2.06 ± 0.12 | 2.5 ± 0.11
LQKQILTVENKLQFETD [SMC1] | 2.6 ± 0.069 | 2.37 ± 0.052 | 2.9 ± 0.046 | 2.55 ± 0.047
YKLTNDEEGIFSRFVDQ [YCG1] | 2.94 ± 0.12 | 2.83 ± 0.13 | 2.94 ± 0.057 | 3 ± 0.085
VSLTQLRCVKYLQETAI [RPC82] | 1.82 ± 0.14 | 2.18 ± 0.1 | 3.1 ± 0.28 | –
HVDSLIEDFVDGIANSK [SRB7] | 3.06 ± 0.1 | 3.3 ± 0.077 | 3.08 ± 0.057 | 3.04 ± 0.059
IGLLNKSKSSLDGKFSL [RPN2] | 2.67 ± 0.089 | 2.85 ± 0.15 | 2.74 ± 0.093 | 2.5 ± 0.14
PYLLETYANVLIPCKYL [RPN7] | 1.32 ± 0.067 | 1.43 ± 0.063 | 1.18 ± 0.062 | 1.19 ± 0.099
SSFKKNLLKFITSNHKS [RPN3] | 1.46 ± 0.053 | 1.5 ± 0.049 | 1.83 ± 0.092 | 1.3 ± 0.064
KLEEESKRGNDKKHFNN [RPC53] | 3.34 ± 0.098 | 3.15 ± 0.094 | 3.28 ± 0.08 | 3.17 ± 0.094
TFLESINGINWRFHTPQ [SIN4] | 2.4 ± 0.054 | 1.86 ± 0.048 | 2.02 ± 0.043 | 1.93 ± 0.12
LIAVYYSFGGLLMRLEG [RPB8] | 2.69 ± 0.059 | 2.79 ± 0.076 | 2.89 ± 0.069 | 3.07 ± 0.1

Sequence | protein stability index (doa10∆) | protein stability index (pdr5∆) | protein stability index (ubr1∆) | protein stability index (san1∆)
SMNATMRNFSKQNQDSK [YDL088C/ASM4] | 2.86 ± 0.14 | 2.99 ± 0.24 | 2.84 ± 0.24 | 1.94 ± 0.27
RNVGKTLVNKSTGLKNA [RPS1B] | 2.81 ± 0.098 | 2.72 ± 0.097 | 2.96 ± 0.086 | 2.59 ± 0.12
IEEHPTVVDAIDNSDEI [IRR1] | 3.35 ± 0.13 | 3.12 ± 0.076 | 3.1 ± 0.06 | 3.38 ± 0.069
QKIMILQRTILNRIINH [RGR1] | 1.81 ± 0.068 | 1.83 ± 0.067 | 1.7 ± 0.055 | 2 ± 0.076
VNRQSPLFFVDLKLLFN [RGR1] | 1.53 ± 0.065 | 1.54 ± 0.074 | 1.23 ± 0.11 | 1.29 ± 0.13
FNYVQECPAIPIFNYIF [YJL039C/NUP192] | 1.9 ± 0.072 | 1.75 ± 0.056 | 1.85 ± 0.042 | 1.88 ± 0.082
LASEVGDPALVYKFMSL [ECM29] | 2.32 ± 0.069 | 2.4 ± 0.067 | 2.05 ± 0.034 | 2.34 ± 0.093
LYTLAQETEGTNRHTLA [SIR3] | 2.73 ± 0.077 | 2.09 ± 0.072 | 2.52 ± 0.059 | 2.2 ± 0.084
EKKGIVQASVTSSTHER [RET1] | 3.28 ± 0.19 | 3.1 ± 0.23 | 3.24 ± 0.11 | 3.45 ± 0.15
LIETVFVKNIRMLSFED [RPN9] | 2.19 ± 0.044 | 1.89 ± 0.05 | 1.97 ± 0.041 | 1.78 ± 0.066
KIADLVRIPPDQFHRDT [RPC25] | 2.18 ± 0.063 | 2.52 ± 0.062 | 2.93 ± 0.088 | 2.45 ± 0.085
LHPQLHEVQYQESSSTL [SIN4] | 2.28 ± 0.049 | 2.5 ± 0.041 | 2.3 ± 0.035 | 2.41 ± 0.07
FEIQGVPPMKLAYSKIV [YMR129W/POM152] | 1.59 ± 0.074 | 2.01 ± 0.063 | 1.74 ± 0.062 | 1.53 ± 0.1
LRIVTHLAICLDIINPG [YDL116W/NUP84] | 1.61 ± 0.08 | 1.38 ± 0.083 | 1.82 ± 0.067 | 1.57 ± 0.095
PNADDIRDSIPQMDSFD [DIS3] | 2.79 ± 0.078 | 2.86 ± 0.089 | 3.06 ± 0.052 | 3.14 ± 0.09
KILQKRSISKELIVSEE [SIR3] | 2.37 ± 0.064 | 2.52 ± 0.075 | 2.37 ± 0.052 | 2.28 ± 0.066
DDLQKFNGIENQSAYEW [ISW2] | 3.2 ± 0.21 | 3.23 ± 0.21 | 3.32 ± 0.14 | 3.29 ± 0.1
VSETPKRIKGLEFSALS [RPO31] | 3.01 ± 0.12 | 2.94 ± 0.12 | 2.97 ± 0.1 | 3.01 ± 0.086
EQFYTKDIIDPKLTSIF [RPN2] | 2.32 ± 0.11 | 2.92 ± 0.11 | 2.47 ± 0.09 | 2.36 ± 0.11
KKACIIFFDEIDAVGGA [RPT1] | 2.39 ± 0.052 | 2.67 ± 0.054 | 2.73 ± 0.038 | 2.81 ± 0.055
QINPTRETNDDIWRVAG [SNF2] | 2.6 ± 0.064 | 2.26 ± 0.066 | 2.14 ± 0.052 | 2.25 ± 0.069
EIILKLCRNPLTSGLLY [YJL039C/NUP192] | 2.21 ± 0.069 | 1.84 ± 0.07 | 1.17 ± 0.046 | 1.22 ± 0.16
SSNQSAPVETKKKRFEI [HRT1] | 3.18 ± 0.065 | 3.3 ± 0.079 | 3.27 ± 0.07 | 3.08 ± 0.069
VREFLEKNYDRKEPPAT [PRE6] | 3.29 ± 0.13 | 3.28 ± 0.1 | 3.3 ± 0.068 | 3.11 ± 0.071
LKVRKGHIAKLMATEYQ [RPB2] | 2.52 ± 0.14 | 2.33 ± 0.13 | 1.86 ± 0.057 | 1.28 ± 0.19
DIDLETYSFIDNDRFNV [YML103C/NUP188] | 2.47 ± 0.064 | 2.54 ± 0.056 | 2.21 ± 0.042 | 2.46 ± 0.081
